Laboratory results reported in the RNAGym collection of RNA variant scans (doi:10.1073/pnas.2313332121).
Variants at the floor of the assay were thinned out.

B1: TPR 5TU (parent)
chain: GGAUCUUCUCGAUCUAACAAAAAAGACAAAUCUGCCACAAAGCUUGAGAGCAUCUUCGGAUGCAGAGGCGGCAGCCUUCGGUGGCGCGAUAGCGCCAACGUUCUCAACUAUGACACGCAAAACGCGUGCUCCGUUGAAUGGAGUUUAUCAUG

Variants of: B1
Test: polymerase ribozyme fitness, log enrichment relative to wild type (log ratio); higher = more active; in vitro selection for triplet polymerase activity
How it was run: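 A single round of triplicate in vitro selection, including frozen incubation at −7 °C, was applied to PCR-built, transcribed mutant libraries of each subunit of a heterodimeric triplet polymerase ribozyme. Illumina sequencing of input and output libraries retained genotypes with ≥10 input reads and ≥1 read per output. Fitness is the base-2 logarithm of genotype enrichment divided by wild-type enrichment, from inverse-variance-weighted replicate averages.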

GGAUCUUCUCGAUCUAACAAAAAAGACAUAUCUGCCACACAGCUUAAGAGCAUCUUCGGAUGCAGAAGCGGCAGCCUUCGAUGGGGCGAUAGCGCCAACGUUCUCAACUAUGCCACGCAAAACGCGUGCUCCGUUGGAUGGAGUUUAUCAUG and GGAUCUUCUCGAUCUAACAAAAAAGACAUAUCUGCCACAAAGCUUGAGAGCAUCUUCUGAAGCAGAGGCGGCAGCCUUCGGAGGCACGAUAGCGCCAACGUUCUCAACUAUGACACGCGAAACGCGUGCUCCGUUGAAUGGAGUUUAUCAUG cannot be ordered by “polymerase ribozyme fitness (log ratio)” value: at most -4.2 for the first, at most -4.2 for the second.

GGAUCUUCUCGAUCUAACAAAAAAGACAUAUCUGCCACAAAGCUUGAGAGCAUCUUCGAAUGCAGAGGCGGCAGCCUUCGGUGGCGCGAUAGCGCCAACGUUCUCAACUAUGACACGCAAAACGCGUGCUCCGUUGAAUAGAGUUUAUCAUG and GGAUCUUCUCGAUCUAACAAAAAAGACAUAUCUGCCACAAAGCUUGAGAGCAUCUUCGGAUGCAGAGGCGGCAGCCUUCGGUGUCGCGAUAGCGCCAACGUUCUCAACUAUGACACGCAAAACGCGUGCUCCGUAGAAUGGAGUUUAUCAUG cannot be ordered by “polymerase ribozyme fitness (log ratio)” value: at most -4.2 for the first, at most -4.2 for the second.

GGAUCUUCUCGAUCUAACAAAAAAGACAUAGCUGCCACAAAGCUUGAGAGCAUCUUCGGAUGCAGAGGCGGUAGCCUUCGGUCGCGCGAUAGCGCCAACGUUCUCAACUAUGACACGCAAAACGCGUGCUCCGUUGAAUGGAGUUUAUCAUG and GGAUCUUCUCGAUCUAACAAAAAAGACAUAUCUGCCACAAAGCUUGAGAGCGUCCUCGGAUGCAGAGGCGGCAGCCUUCGGUGGCGCGAUAGCGCCAACGUUCUCAACUAUGACACGCAAAACGCGUGCUCCGAUGAAUGGAGUUUAUCAUG cannot be ordered by “polymerase ribozyme fitness (log ratio)” value: at most -4.2 for the first, at most -4.2 for the second.

GGAUCUUCUCGAUCUAACAAAAAAGACAUAUCUGCCACAAAGCUUGAGAGCAUCUUCGGAUGCAGAGGCGGCAGCCUUCGGUGGCGCGAUAGCGCCAACGUUCUCAACUAUGACACGCAAAACGCAUGCUCCGUUGAAUGGAGUUUAUCAUG and GGAUCUUCUCGAUCUAACAAAAAAGACAUAUCUGCCACAAAGCUUUAGAGCAUCUUCGGAUGCAGAGGCUGCAGCCUUCGGUGGCGCGAGAGCGUCAACGUUCUCAACUAUGACGCUCAUAACGCGUGCUCCGUUGAAUGGAGUUUAUCAUG cannot be ordered by “polymerase ribozyme fitness (log ratio)” value: at most -4.2 for the first, at most -4.2 for the second.

GGAUCUUCUCGAUCUAACAAAAAAGACAUAUCUGCCACCUAGCUGGAGAGCAUCUUCGGAUGCAGAGGCGGCAGCCGUCGGUGGCGCGAUAGCGCCAACGUUCUCAACUAUGACACGCAAAACGCGUGCUCCGUUGAAUGGAGUUUAUCAUG and GGAUCUUCUCGAUCUAACAAAAAAGACAUAUCUGCCACAAAGCUUGAAAGCAUCUUCGGAGGCAGAGGCGGCAGCCUUCGGUGUAGCGAUAGCGCCAACGUUCUUAACUAUGACACGCAAAACGCUUGCUCCGUUGAAUGGAGUUUAUCAUG cannot be ordered by “polymerase ribozyme fitness (log ratio)” value: at most -4.2 for the first, at most -4.2 for the second.

GGAUCUUCUCGAUCUAACAAAAAAGACAUAUCUGCCACAGAGCUUGAGAGCAUCUUCGGAUGCAGAGGCGGCAGCCUUCGGUGGCGCGAUAGCGCCAACGUUCUCAACUAUGACACGCAAAACGCGUGCUCCGUUGAAUGGAGUUUAUCAUG and GGAUCUUCUCGAUCUAACAAAAAAGACAUAUCUGCCAUAAAGCUUGAGAGCAUCUUCGGAUGCAGAGGCGGCAGCCUUCGGUGGCACGAUAGCGCCAACGUUCUCAACUAUGACACGCAAAACGCGUGCUCCGUUGAAUGGAGUUUAUCAUG cannot be ordered by “polymerase ribozyme fitness (log ratio)” value: -4.2 for the first, at most -4.2 for the second.

GGAUCUUCUCGAUCUAACAAAAAAGACAUAUCUGCCACAAAGCUUGAGAGCAUCUUCGGAUGCAGAGGCGGCAGCCUUCGGUGACGCGAUAGCGCCAACGUUCUCAACUAUGACACGCAAAACGCGUGCUCCGUUGAAUGGAGUUUAUCAUG and GGAUCUUCUCGAUCUAACAAAAAAGACAUAACUGCCACAAAGCUUGAGAGCAUCUGCGGAUGCAGGGGCGGCAGCCUUCGGUGGCGCGAUAGCGCUAACGUUCUAAACUAUGACACGCAAAACGCGUGCUCCGUUGAUUGGAGUUUAUCAUG cannot be ordered by “polymerase ribozyme fitness (log ratio)” value: at most -4.2 for the first, at most -4.2 for the second.

GGAUCUUCUCGAUCUAACAAAAAAGACAUAUCUGCCACAAAGCUUGAGAGCAUCUUCGGAUGCCGAGGCGGCAGCCUUCGGUGGGGCGAUAGCGCCAACGUUCUCAACUAUGACACGCAAAACGCGUGCUCCGUUGAAUGGAGUUUAUCAUG and GGAUCUUCUCGAUCUAACAAAAAAGACAUAUCUGCCACAAAGCUUGAGAGCAUCUUCGGAUGCAGAGGCGGCAGCCUUCGGUGGCGCGAUAGCGCCAACGUUCUCAACUAUGAUACGCAAAACGCGUGCUCCGUUGGAUGAAGUUUACCAUG cannot be ordered by “polymerase ribozyme fitness (log ratio)” value: at most -4.2 for the first, at most -4.2 for the second.

GGAUCUUCUCGAUCUAACAAAAAAGACAUAUCUGCCACAAAGCUUGAGAGCAUCUUCGGAUGCAGAGGCGGCAGCCUUCGGUGGCGCGAUUGCGCCAACGUUCUCAACUAUGACACGCAAAACGCGUGCUCCGUUGAAUGGAGUUUAUCAUG and GGAUCUUCUCGAUCUAACAAAAAAGACAUAUCUGCCACAAAGCUUGAGCGCAUCUUCGGAUGCAGAGUCGGCCGCCUUCGGUGGCGCGAUCGCGCCAACGUUGUCAACUAUGACACGCAAAACGCGUGCUCCGUUGAAUGGAGUUUAUCAUG cannot be ordered by “polymerase ribozyme fitness (log ratio)” value: at most -4.2 for the first, at most -4.2 for the second.

GGAUCUUCUCGAUCUAACAAAAAAGACAUAUCUGCCACAAAGCUUGAGAGCAUCUUCGGAUGCAGAGGCGGCAGCAUUCGGUGGCGAGAUAGAGCCAACGUUCUCAACUAUGACACGCAAAACGCGUGAUCCGUUGAAUGGAGUUUAUCAUG and GGAUCUUCUCGAUCUAACAAAAAAGACAUAUCUGCCACAAAGCUUGAGAGCAUCUUCGGAUGCAGAGGCGGCAGCCUUCGGUGGCGCGAUACCGCCAACGUCCUCAACUAUGACAUGCAAAACGCGUGCUCCGUUGAAUGGAGUUUAUCAUG cannot be ordered by “polymerase ribozyme fitness (log ratio)” value: at most -4.2 for the first, at most -4.2 for the second.

Compared with GGAUCUUCUCGAUCUAACAAAAAAGACAUAUCUGCCACAAAGCUUGAGAGCAUCUUCGGAUGCAGAGGCGGCAGCCUUCGGUGGCGCGAUAGGGCCAACGUUCUCAACUAUGACACGCAAAACGCGUGCUCCGUUGAAUGGAGUUUAUCAUG, GGAUCUUCUCGAUCUAACAAAAAAGACAUAUCUGCCACAAAGCUUGAGAGCAUCUUCGGAUGCAGAGGCGGCAGCCUUCGGUGGCGCGAUAGCGACAACGUUCUCAACUAUGACACGCAAAACGCGUGCUCCGUUGAAUGGAGUUUAUCAUG is higher in “polymerase ribozyme fitness (log ratio)” value: at most -4.2 for the first, -3.68 for the second.

Going from GGAUCUUCUCGAUCUAACAAAAAAGACAUAUCUGCCACAAAGCUUGAGAGCAUCUUCGGAUGCAGAGGCGGCAGCCUUCGGUGGCGCGAUAGCGUCAACGUUCUCAACUAUGACACGCAAAACGCGUGCUCCGUUGAAUGGAGUUUAUCAUG to GGAUCUUCUCGAUCUAACAAAAAAGACAUAUCUGCCACAAAGCUUGAGAGCAUCUUCGGAUGCAGAGGCGCCAGCCUUCGGUGGCGCGAUAGUGCCAACGUUCUCAACGAUGACACGCAAAACCCGUGCUCCGUUGAAUGGAGUUUAUCAUG, the “polymerase ribozyme fitness (log ratio)” value falls from -3.54 to at most -4.2.

GGAUCUUCUCGAUCUAACAAAAAAGACAUAUCUGCCACAAAGCUUGAGACCCUCUUCGGAUGCCGAGGCGGCAGCCCUCGGUGGCGCGAUACCAACAACGUUCUCAACUAUGACCCGCAAAACGCGUGCUCCGUUGAAGGGAGUUUAUCAUG and GGAUCUUCUCGAUCUAACAAAAAAGACAUAUCUGCCACAUAGCUUGAGAGCAUCUUCGGAUGCAGAGUUGGCAGCCUUCGGUGGCGCGAUAACGCCAACGUUCUCAACUAUGACACGCAAAACGCGUGCUCCGUUGAAUCGAGUUUAUCAUG cannot be ordered by “polymerase ribozyme fitness (log ratio)” value: at most -4.2 for the first, at most -4.2 for the second.

GGAUCUUCUCGAUCUAACAAAAAAGACAUAUCUGCCACAAAGCUUGAGAGCAUGUGCGGGUGCAGAGGCGGCAGCCUUCGGUGGCGCGAUAGCGCCAACGUUCUCAACUAUGACACGCAAAACGCGUGCUCCGUUGAAUGGAGUUUAUCAUG and GGAUCUUCUCGAUCUAACAAAAAAGACAUAUCUGCCACAAAGCUUGAGAGCAUUUUCGGAUACAGAGGCGGCAGCCUUCGGUGGCGCGAUAGCGCCAACGUUCUCAACUAUGGCACGCAAAACGCGUGCUCCGUUGAAGGGAGUUUAACAUG cannot be ordered by “polymerase ribozyme fitness (log ratio)” value: at most -4.2 for the first, at most -4.2 for the second.

GGAUCUUCUCGAUCUAACAAAAAAGACAUAUCUGCCACAAAGCUUGAGAGCAUCUUCGGAUGCAGAGGCGGCAGCCUUCGGUGGCGCGUUAGCACCAACGUUCUCAACUAUGACAGGCAAAACGCGUGCUCCGUUGAAUGAAGUUUAUCAUG and GGAUCUUCUCGAUCUAACAAAAAAGACAUAUCUGCCACAAAGCUUGCGAGCAUCGUCGGAUGCAGAGGCGGCAGCCUUCGGUGGCGUGAUAGCGCCAGCGUUCUCAACUAUGACACGCAAAACGCGUGCUCCGUUGAAUGGAGUUUAUCAUG cannot be ordered by “polymerase ribozyme fitness (log ratio)” value: at most -4.2 for the first, at most -4.2 for the second.

GGAUCUUCUCGAUCUAACAAAAAAGACAUAUCUGGCACAAAGCUUGAGAGCAUCUUCGGAUGCAGAGGCGCCAGCCUUCGGUGGCGCGAUAGCGCCAACGUUCUCAACUAUGACACGCAAAACGCGUGCUCCGUUGAAUGGAGUUUAUCAUG and GGAUCUUCUCGAUCUAACAAAAAAGACAUAUCUGCCACAAAGCUUGAGAGCAUCUUCGUAUGCAGAGGCGGCAGCCUUCGGUGGCGCGAUAGUGCCAACGUUCUCAACUAUGACACGCAAAACGCGUGCUCCGUUGAAUGGAGUUUAUCAUG cannot be ordered by “polymerase ribozyme fitness (log ratio)” value: at most -4.2 for the first, at most -4.2 for the second.

GGAUCUUCUCGAUCUAACAAAAAAGACAUAUCUGCAACAAAGCUUGCGAGCAUCUUCGGAUGCAGAGGCGGCAGCCUUCGGUGGCGCGAUAGCGCCAACGUUCUCAACUAUGACACGUAAAACGCGUGCUCCGUUGAAUGGAGUUCAUCAUG and GGAUCUUCUCGAUCUAACAAAAAAGACAUAUCUGCCACAAAGCUUGAGAGCAUCUUCGGAUGCAGAGGCGGCAGCCUUCGGUGGCGCGAUAGCGCUAACGUUCUCAACUAUGACACGCAAAACGCGUGCUCCGUUUAAUGGAGUUUAUCAUG cannot be ordered by “polymerase ribozyme fitness (log ratio)” value: at most -4.2 for the first, at most -4.2 for the second.

Compared with GGAUCUUCUCGAUCUAACAAAAAAGACAUAUCUGCCACAAAGCUUGAGAGCAUCUUCGGAUGCAGAGGCGGCAGCCUUCGGUGGCGCGAUAGCGCCAACGUUCUCAACUAUGACACGCAAAACGCGUGCUCCGUUGAAUGCAGUUUAUCAUG, GGAUCUUCUCGAUCUAACAAAAAAGACAUAUCUGCCACAAAGCUUGAGAGCCUCUUCGGAUGCAGAGCCGGCAGCCUUCGGUGGCGCGAUAGCGCUAAGGUUCUCAACUAUGACACGCAAUACGCAUGCUCCGUUGAAUGGAGUUUAUCUUG is lower in “polymerase ribozyme fitness (log ratio)” value: -3.49 for the first, at most -4.2 for the second.

GGAUCUUCUCGAUCUAACAAAAAAGACAUAUCUGCCACAAAUCUUGAGAGCAUCUUCGGAUGCAGAGGCGGCAGCCUUCGGUGUCGCGAUAGCGCCAACGUUCUCAACUAUGAAACGCAAAACGCGUGCUCCGUUGAAUGGAGUUUAUCAUG and GGAUCUUCUCGAUCUAACAAAAAAGACAUAUCUGCCACAAAGCUUGAGAGCAUCUUCGGAUGCAGAGGCGGCAGCCUUCGGUGGCGCGAUAGCGCCAACGUUUUCAACUAUGACACGCAAAACGCGUGCUCCGUUGAAUGGAGUUUAUCAUG cannot be ordered by “polymerase ribozyme fitness (log ratio)” value: at most -4.2 for the first, at most -4.2 for the second.
